Test results published in the supplement of paper PMC11246515.
± gives the standard deviation of the averaged measurements.

Assay: total protein half-life in vivo (active degradation + dilution); higher = more stable protein
[1] = E. coli NCM3722 delta-clpP delta-lon delta-hslV, growth: N-lim chemostat, doubling time 6 h
[2] = E. coli NCM3722 delta-clpP, growth: N-lim chemostat, doubling time 6 h
[3] = E. coli NCM3722 delta-hslV, growth: N-lim chemostat, doubling time 6 h
[4] = E. coli NCM3722 delta-smpB, growth: N-lim chemostat, doubling time 6 h
[5] = wild type E. coli NCM3722, growth: C-lim chemostat, doubling time 3 h
[6] = wild type E. coli NCM3722, growth: C-lim chemostat, doubling time 6 h
[7] = wild type E. coli NCM3722, growth: C-lim chemostat, doubling time 12 h
[8] = wild type E. coli NCM3722, growth: N-lim chemostat, doubling time 6 h
[9] = wild type E. coli NCM3722, growth: N-lim chemostat, doubling time 12 h
[10] = wild type E. coli NCM3722, growth: P-lim chemostat, doubling time 6 h
[11] = wild type E. coli NCM3722, growth: P-lim chemostat, doubling time 12 h
[12] = E. coli NCM3722 delta-lon, growth: N-lim chemostat, doubling time 6 h

| Sequence | total protein half-life in vivo [1] [h] | total protein half-life in vivo [2] [h] | total protein half-life in vivo [3] [h] | total protein half-life in vivo [4] [h] | total protein half-life in vivo [5] [h] | total protein half-life in vivo [6] [h] | total protein half-life in vivo [7] [h] | total protein half-life in vivo [8] [h] | total protein half-life in vivo [9] [h] | total protein half-life in vivo [10] [h] | total protein half-life in vivo [11] [h] | total protein half-life in vivo [12] [h] |
| --- | --- | --- | --- | --- | --- | --- | --- | --- | --- | --- | --- | --- |
| MKPLHYTASALALGLALMGNAQAVTTIPFWHSMEGELGKEVDSLAQRFNAENPDYKIVPTYKGNYEQNLSAGIAAFRTGNAPAILQVYEVGTATMMASKAIKPVYDVFKEAGIQFDESQFVPTVSGYYSDSKTGHLLSQPFNSSTPVLYYNKDAFKKAGLDPEQPPKTWQDLADYAAKLKASGMKCGYASGWQGWIQLENFSAWNGLPFASKNNGFDGTDAVLEFNKPEQVKHIAMLEEMNKKGDFSYVGRKDESTEKFYNGDCAMTTASSGSLANIREYAKFNYGVGMMPYDADAKDAPQNAIIGGASLWVMQGKDKETYTGVAKFLDFLAKPENAAEWHQKTGYLPITKAAYDLTREQGFYEKNPGADTATRQMLNKPPLPFTKGLRLGNMPQIRVIVDEELESVWTGKKTPQQALDTAVERGNQLLRRFEKSTKS [P0AG80] | 4.8 ± 0.06 | 5.43 ± 0.54 | 7.41 ± 0.31 | 6.14 ± 0.2 | 3.37 ± 0.17 | 6.26 ± 0.076 | 12.9 ± 0.73 | 6.47 ± 0.47 | 12.7 ± 0.98 | 6.14 ± 0.21 | 12.99 ± 0.1 | – |
| MKPLLDVLMILDALEKEGSFAAASAKLYKTPSALSYTVHKLESDLNIQLLDRSGHRAKFTRTGKMLLEKGREVLHTVRELEKQAIKLHEGWENELVIGVDDTFPFSLLAPLIEAFYQHHSVTRLKFINGVLGGSWDALTQGRADIIVGAMHEPPSSSEFGFSRLGDLEQVFAVAPHHPLALEEEPLNRRIIKRYRAIVVGDTAQAGASTASQLLDEQEAITVFDFKTKLELQISGLGCGYLPRYLAQRFLDSGALIEKKVVAQTLFEPVWIGWNEQTAGLASGWWRDEILANSAIAGVYAKSDDGKSAI | 5.91 ± 0.24 | – | – | – | – | – | – | – | – | – | – | – |
| MKPLSSPLQQYWQTVVERLPEPLAEESLSAQAKSVLTFSDFVQDSVIAHPEWLTELESQPPQADEWQHYAAWLQEALCNVSDEAGLMRELRLFRRRIMVRIAWAQTLALVTEESILQQLSYLAETLIVAARDWLYDACCREWGTPCNAQGEAQPLLILGMGKLGGGELNFSSDIDLIFAWPEHGCTQGGRRELDNAQFFTRMGQRLIKVLDQPTQDGFVYRVDMRLRPFGESGPLVLSFAALEDYYQEQGRDWERYAMVKARIMGDSEGVYANELRAMLRPFVFRRYIDFSVIQSLRNMKGMIAREVRRRGLTDNIKLGAGGIREIEFIVQVFQLIRGGREPSLQSRSLLPTLSAIAELHLLSENDAEQLRVAYLFLRRLENLLQSINDEQTQTLPSDELNRARLAWAMDFADWPQLTGALTAHMTNVRRVFNELIGDDESETQEESLSEQWRELWQDALQEDDTTPVLAHLSEDDRKQVLTLIADFRKELDKRTIGPRGRQVLDHLMPHLLSDVCAREDAAVTLSRITALLVGIVTRTTYLELLSEFPAALKHLISLCAASPMIASQLARYPLLLDELLDPNTLYQPTATDAYRDELRQYLLRVPEDDEEQQLEALRQFKQAQLLRIAAADIAGTLPVMKVSDHLTWLAEAMIDAVVQQAWVQMVARYGKPNHLNEREGRGFAVVGYGKLGGWELGYSSDLDLIFLHDCPMDAMTDGEREIDGRQFYLRLAQRIMHLFSTRTSSGILYEVDARLRPSGAAGMLVTSAEAFADYQKNEAWTWEHQALVRARVVYGDPQLTAHFDAVRREIMTLPREGKTLQTEVREMREKMRAHLGNKHRDRFDIKADEGGITDIEFITQYLVLRYAHEKPKLTRWSDNVRILELLAQNDIMEEQEAMALTRAYTTLRDELHHLALQELPGHVSEDCFTAERELVRASWQKWLVEE | 4.99 ± 0.16 | 4.75 ± 0.75 | 4.215 ± 0.0047 | 4.64 ± 0.27 | 3.414 ± 0.027 | 6.65 ± 1.2 | 12.9 ± 0.85 | 4.22 ± 0.24 | 7.85 ± 0.1 | 6.33 ± 0.28 | 13.3 ± 1.3 | 5.2 ± 0.75 |
| MKPMHIAMALLSAAMFFVLAGVFMGVQLELDGTKLVVDTASDVRWQWVFIGTAVVFFFQLLRPAFQKGLKSVSGPKFILPAIDGSTVKQKLFLVALLVLAVAWPFMVSRGTVDIATLTMIYIILGLGLNVVVGLSGLLVLGYGGFYAIGAYTFALLNHYYGLGFWTCLPIAGLMAAAAGFLLGFPVLRLRGDYLAIVTLGFGEIVRILLLNNTEITGGPNGISQIPKPTLFGLEFSRTAREGGWDTFSNFFGLKYDPSDRVIFLYLVALLLVVLSLFVINRLLRMPLGRAWEALREDEIACRSLGLSPRRIKLTAFTISAAFAGFAGTLFAARQGFVSPESFTFAESAFVLAIVVLGGMGSQFAVILAAILLVVSRELMRDFNEYSMLMLGGLMVLMMIWRPQGLLPMTRPQLKLKNGAAKGEQA | 5.59 ± 2.4 | 6.22 | 5.84 ± 0.34 | 5.92 ± 1.1 | – | 5.79 ± 0.64 | 10.7 ± 1.2 | – | 12.2 | 6.09 ± 0.58 | 10.7 ± 0.3 | 5.83 ± 1.7 |
| MKPTTLLLIFTFFAMPGIVYAESPFSSLQSAKEKTTVLQDLRKICTPQASLSDEAWEKLMLSDENNKQHIREAIVAMERNNQSNYWEALGKVECPDM [Q2M7X4] | 4.53 | – | – | – | – | – | – | – | – | – | – | – |
| MKPVKPPRINGRVPVLSAQEAVNYIPDEATLCVLGAGGGILEATTLITALADKYKQTQTPRNLSIISPTGLGDRADRGISPLAQEGLVKWALCGHWGQSPRISELAEQNKIIAYNYPQGVLTQTLRAAAAHQPGIISDIGIGTFVDPRQQGGKLNEVTKEDLIKLVEFDNKEYLYYKAIAPDIAFIRATTCDSEGYATFEDEVMYLDALVIAQAVHNNGGIVMMQVQKMVKKATLHPKSVRIPGYLVDIVVVDPDQTQLYGGAPVNRFISGDFTLDDSTKLSLPLNQRKLVARRALFEMRKGAVGNVGVGIADGIGLVAREEGCADDFILTVETGPIGGITSQGIAFGANVNTRAILDMTSQFDFYHGGGLDVCYLSFAEVDQHGNVGVHKFNGKIMGTGGFIDISATSKKIIFCGTLTAGSLKTEITDGKLNIVQEGRVKKFIRELPEITFSGKIALERGLDVRYITERAVFTLKEDGLHLIEIAPGVDLQKDILDKMDFTPVISPELKLMDERLFIDAAMGFVLPEAAH | 5.68 ± 0.1 | 4.03 ± 0.058 | 3.94 ± 0.05 | 3.728 ± 0.031 | 2.75 ± 0.29 | 5.2 ± 0.61 | 10.7 ± 1.1 | 3.81 ± 0.14 | 6.72 ± 0.91 | 6.39 ± 0.56 | 11.1 ± 0.4 | 4.17 ± 0.1 |
| MKPVTLYDVAEYAGVSYQTVSRVVNQASHVSAKTREKVEAAMAELNYIPNRVAQQLAGKQSLLIGVATSSLALHAPSQIVAAIKSRADQLGASVVVSMVERSGVEACKAAVHNLLAQRVSGLIINYPLDDQDAIAVEAACTNVPALFLDVSDQTPINSIIFSHEDGTRLGVEHLVALGHQQIALLAGPLSSVSARLRLAGWHKYLTRNQIQPIAEREGDWSAMSGFQQTMQMLNEGIVPTAMLVANDQMALGAMRAITESGLRVGADISVVGYDDTEDSSCYIPPLTTIKQDFRLLGQTSVDRLLQLSQGQAVKGNQLLPVSLVKRKTTLAPNTQTASPRALADSLMQLARQVSRLESGQ | 5.83 ± 0.72 | 5.64 ± 0.41 | 4.55 ± 0.067 | 4.13 ± 0.042 | 2.96 ± 0.24 | 5.81 ± 0.66 | 7.63 ± 1.8 | 5.01 ± 0.34 | 7.759 ± 0.077 | 4.77 ± 0.2 | 10.5 ± 0.49 | 4.85 ± 0.15 |
